According to publication PMC12632113 (Cell & Bioscience, 2025):

Biological target: the molecule itself
Assay: native gel or EMSA

B1: polypyrimidine tract-binding protein 1 (PTBP1), wild type (natural protein)
chain: not shown
- stoichiometry N: 2
